This note sets out measurements from US20220016254A1 (BEIJING QL BIOPHARMACEUTICAL, published 2022).

The target in assay [1] is T1, human beta-Klotho (human, UniProt Q86Z14 1-1044).
T1 sequence (looked up): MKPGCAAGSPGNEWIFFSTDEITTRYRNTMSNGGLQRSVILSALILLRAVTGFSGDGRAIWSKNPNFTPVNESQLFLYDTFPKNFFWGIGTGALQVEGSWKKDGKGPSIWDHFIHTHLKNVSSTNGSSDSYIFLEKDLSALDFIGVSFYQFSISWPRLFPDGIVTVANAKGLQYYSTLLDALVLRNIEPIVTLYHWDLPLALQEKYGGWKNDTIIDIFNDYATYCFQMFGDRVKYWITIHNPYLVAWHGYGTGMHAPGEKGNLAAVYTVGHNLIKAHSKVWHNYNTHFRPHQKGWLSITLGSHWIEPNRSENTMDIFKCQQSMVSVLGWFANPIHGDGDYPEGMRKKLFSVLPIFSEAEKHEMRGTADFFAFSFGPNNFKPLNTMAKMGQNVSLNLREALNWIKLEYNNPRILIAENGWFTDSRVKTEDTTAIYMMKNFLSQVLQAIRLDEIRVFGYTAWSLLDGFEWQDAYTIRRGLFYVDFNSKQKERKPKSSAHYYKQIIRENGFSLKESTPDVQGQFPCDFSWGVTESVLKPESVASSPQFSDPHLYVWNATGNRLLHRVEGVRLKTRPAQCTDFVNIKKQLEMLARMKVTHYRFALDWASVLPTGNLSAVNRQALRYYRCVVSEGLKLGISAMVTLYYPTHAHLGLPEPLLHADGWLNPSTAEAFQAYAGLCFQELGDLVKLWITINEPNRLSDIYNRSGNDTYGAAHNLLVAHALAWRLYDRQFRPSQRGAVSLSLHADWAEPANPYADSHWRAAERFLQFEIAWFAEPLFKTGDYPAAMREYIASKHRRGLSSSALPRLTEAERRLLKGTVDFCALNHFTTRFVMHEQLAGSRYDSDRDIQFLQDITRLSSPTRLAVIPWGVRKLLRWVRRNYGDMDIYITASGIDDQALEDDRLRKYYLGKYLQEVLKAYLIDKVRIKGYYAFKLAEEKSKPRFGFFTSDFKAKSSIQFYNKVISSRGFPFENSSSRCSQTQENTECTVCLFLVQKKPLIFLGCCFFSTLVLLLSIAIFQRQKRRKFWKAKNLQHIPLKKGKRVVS
Put plainly: cell-based or functional assay.

Assay [2] addresses human GLP-1 receptor (human, UniProt P43220 24-463). Put plainly: cell-based or functional assay.

B1: Compound 71 (ligand)
chain: HGEGTFTSDVSSYLEEQAAKEFIAWLVKGGGGAQPGAQPGAQPGAQPGAQPCQAPGAQPGAQPGAQPGAQPGAQPGAQPGAQPGAQPGAQPGAQPGAQPGAQPGAQPGAQPHPIPDSSPLLQFGGQVRQRYLYTDDAQQTEAHLEIREDGTVGGAADQSPESLLQLKALKPGVIQILGVKTSRFLCQRPDGALYGSLHFDPEACSFRELLLEDGYNVYQSEAHGLPLHLPGQKSPHRDPAPRGPARFLPLPGLPPALPEPPGILAPQPPDVGSSDPLSLVGCSQGRSPSYES
modifications: Moiety B (HOOC-(CH2)20-CO-gGlu-2XADO-EDA-CO-CH2) on 52C and 282C of fusion polypeptide
As for B1, the “FGF21 activity (EC50, nM); p-ERK levels” value in assay [1] came to 2.7 nM. The “GLP-1 activity (EC50, pM); CRE luciferase reporter” value (shortened to “GLP-1 activity (EC50, pM)”) in assay [2] came out at 16.5 pM.

B2: Compound 72 (ligand)
chain: HGEGTFTSDVSSYLEEQAAKEFIAWLVKGGGGAQPGAQPGAQPGAQPGAQPGAQPGAQPGQCPGAQPGAQPGAQPGAQPGAQPGAQPGAQPGAQPGAQPGAQPGAQPGAQPHPIPDSSPLLQFGGQVRQRYLYTDDAQQTEAHLEIREDGTVGGAADQSPESLLQLKALKPGVIQILGVKTSRFLCQRPDGALYGSLHFDPEACSFRELLLEDGYNVYQSEAHGLPLHLPGQKSPHRDPAPRGPARFLPLPGLPPALPEPPGILAPQPPDVGSSDPLSLVGCSQGRSPSYES
modifications: Moiety B (HOOC-(CH2)20-CO-gGlu-2XADO-EDA-CO-CH2) on 62C and 282C of fusion polypeptide
B2: the “FGF21 activity (EC50, nM); p-ERK levels” value in assay [1] was 2.4 nM. Besides, the “GLP-1 activity (EC50, pM)” value in assay [2] worked out at 16.5 pM.

B3: Compound 73 (ligand)
chain: HGEGTFTSDVSSYLEEQAAKEFIAWLVKGGGGAQPGAQPGQCPGAQPGAQPGAQPGAQPGAQPGAQPGAQPGAQPGAQPGAQPGAQPGAQPGAQPGAQPGAQPGAQPGAQPHPIPDSSPLLQFGGQVRQRYLYTDDAQQTEAHLEIREDGTVGGAADQSPESLLQLKALKPGVIQILGVKTSRFLCQRPDGALYGSLHFDPEACSFRELLLEDGYNVYQSEAHGLPLHLPGQKSPHRDPAPRGPARFLPLPGLPPALPEPPGILAPQPPDVGSSDPLSLVGCSQGRSPSYES
modifications: Moiety B (HOOC-(CH2)20-CO-gGlu-2XADO-EDA-CO-CH2) on 42C and 282C of fusion polypeptide
On to B3, for which the “FGF21 activity (EC50, nM); p-ERK levels” value in assay [1] is 3.6 nM. Besides, in assay [2], the “GLP-1 activity (EC50, pM)” value amounted to 16.6 pM.

B4: Compound 66 (ligand)
chain: HGEGTFTSDVSSYLEEQAAKEFIAWLVKGGGGSAPGSPAGSPTGSAPGSPCHPIPDSSPLLQFGGQVRQRYLYTDDAQQTEAHLEIREDGTVGGAADQSPESLLQLKALKPGVIQILGVKTSRFLCQRPDGALYGSLHFDPEACSFRELLLEDGYNVYQSEAHGLPLHLPGQKSPHRDPAPRGPARFLPLPGLPPALPEPPGILAPQPPDVGSSDPLSLVGGSQCRSPSYES
modifications: Moiety B (HOOC-(CH2)20-CO-gGlu-2XADO-EDA-CO-CH2) on 51C and 225C of fusion polypeptide
For the molecule B4, the “FGF21 activity (EC50, nM); p-ERK levels” value in assay [1] is 1 nM. In assay [2], the “GLP-1 activity (EC50, pM)” value came out at 41.3 pM.

B5: Compound 54 (ligand)
chain: HGEGTFTSDVSSYLEEQAAKEFIAWLVRGGGGGGGSGGGGSGGGGSGGGGCHPIPDSSPLLQFGGQVRQRYLYTDDAQQTEAHLEIREDGTVGGAADQSPESLLQLKALKPGVIQILGVKTSRFLCQRPDGALYGSLHFDPEACSFRELLLEDGYNVYQSEAHGLPLHLPGQKSPHRDPAPRGPARFLPLPGLPPALPEPPGILAPQPPDVGSSDPLSLVGGSQGRSPSYCS
modifications: Moiety B (HOOC-(CH2)20-CO-gGlu-2XADO-EDA-CO-CH2) on 51C and 231C of fusion polypeptide
Consider B5, for which the “FGF21 activity (EC50, nM); p-ERK levels” value in assay [1] was found to be 3.4 nM. For the same molecule, the “GLP-1 activity (EC50, pM)” value in assay [2] came to 19 pM.

B6: Compound 5 (ligand)
chain: HGEGTFTSDVSSYLEEQAAREFIAWLVRGGGGGGGSGGGGSGGGGSGGGGKHPIPDSSPLLQFGGQVRQRYLYTDDAQQTEAHLEIREDGTVGGAADQSPESLLQLRALRPGVIQILGVRTSRFLCQRPDGALYGSLHFDPEACSFRELLLEDGYNVYQSEAHGLPLHLPGQRSPHRDPAPRGPARFLPLPGLPPALPEPPGILAPQPPDVGSSDPLSLVGKSQGRSPSYAS
modifications: Moiety A (HOOC-(CH2)16-CO-gGlu-2XADO) on 51K and 222K of fusion polypeptide
As to B6, the “FGF21 activity (EC50, nM); p-ERK levels” value in assay [1] was 12.9 nM. Further, the “GLP-1 activity (EC50, pM)” value in assay [2] is 23.1 pM.

B7: Compound 4 (ligand)
chain: HGEGTFTSDVSSYLEEQAAREFIAWLVRGGGGGGGSGGGGSGGGGSGGGGKHPIPDSSPLLQFGGQVRQRYLYTDDAQQTEAHLEIREDGTVGGAADQSPESLLQLRALRPGVIQILGVRTSRFLCQRPDGALYGSLHFDPEACSFRELLLEDGYNVYQSEAHGLPLHLPGQRSPHRDPAPRGPARFLPLPGLPPALPEPPGILAPQPPDVGSSDPLSLVGGSQGRSPSYKS
modifications: Moiety A (HOOC-(CH2)16-CO-gGlu-2XADO) on 51K and 231K of fusion polypeptide
B7: the “FGF21 activity (EC50, nM); p-ERK levels” value in assay [1] was found to be 7.7 nM. Besides, in assay [2], the “GLP-1 activity (EC50, pM)” value is 25.1 pM.

B8: Compound 63 (ligand)
chain: HGEGTFTSDVSSYLEEQAAKEFIAWLVKGGGGGGGSGGGGSGGGGSGGGGCHPIPDSSPLLQFGGQVRQRYLYTDDAQQTEAHLEIREDGTVGGAADQSPESLLQLKALKPGVIQILGVKTSRFLCQRPDGALYGSLHFDPEACSFRELLLEDGYNVYQSEAHGLPLHLPGQKSPHRDPAPRGPARFLPLPGLPPALPEPPGILAPQPPDVGSSDPLSLVGCSQGRSPSYES
modifications: Moiety B (HOOC-(CH2)20-CO-gGlu-2XADO-EDA-CO-CH2) on 51C and 222C of fusion polypeptide
Consider B8, for which the “FGF21 activity (EC50, nM); p-ERK levels” value in assay [1] was determined as 1.2 nM. Further, the “GLP-1 activity (EC50, pM)” value in assay [2] came out at 49.1 pM.

B9: Compound 70 (ligand)
chain: HGEGTFTSDVSSYLEEQAAKEFIAWLVKGGGGGGGSGGGGSGGGGSGGGGCHPIPDSSPLLQFGGQVRQRYLYTDDAQQTEAHLEIREDGTVGGAADQSPESLLQLKALKPGVIQILGVKTSRFLCQRPDGALYGSLHFDPEACSFRELLLEDGYNVYQSEAHGLPLHLPGQKSPHRDPAPRGPARFLPLPGLPPALPEPPGILAPQPPDVGSSDPLSC
modifications: Moiety B (HOOC-(CH2)20-CO-gGlu-2XADO-EDA-CO-CH2) on 51C and 219C of fusion polypeptide
As for B9, in assay [1], the “FGF21 activity (EC50, nM); p-ERK levels” value was over 100 nM. Further, the “GLP-1 activity (EC50, pM)” value in assay [2] worked out at 24.8 pM.

B10: Compound 69 (ligand)
chain: EGTFTSDVSSYLEEQAAKEFIAWLVKGGGGGGGSGGGGSGGGGSGGGGCHPIPDSSPLLQFGGQVRQRYLYTDDAQQTEAHLEIREDGTVGGAADQSPESLLQLKALKPGVIQILGVKTSRFLCQRPDGALYGSLHFDPEACSFRELLLEDGYNVYQSEAHGLPLHLPGQKSPHRDPAPRGPARFLPLPGLPPALPEPPGILAPQPPDVGSSDPLSLVGCSQGRSPSYES
modifications: Moiety B (HOOC-(CH2)20-CO-gGlu-2XADO-EDA-CO-CH2) on 49C and 220C of fusion polypeptide
Regarding B10, the “FGF21 activity (EC50, nM); p-ERK levels” value in assay [1] was determined as 0.53 nM. Further, the “GLP-1 activity (EC50, pM)” value in assay [2] was over 1000 pM.
